Measurements taken from US20220389111A1 (SHANGHAI EPIMAB BIOTHERAPEUTICS, published 2022).

T1: human CD39 protein (recombinant) (human, UniProt P49961 38-478, limits assumed)
T1 construct: Soluble recombinant protein coated on ELISA plates and used in the protein-based ATPase assay; also called recombinant CD39 protein; recombinant purified human CD39 protein
T1 sequence: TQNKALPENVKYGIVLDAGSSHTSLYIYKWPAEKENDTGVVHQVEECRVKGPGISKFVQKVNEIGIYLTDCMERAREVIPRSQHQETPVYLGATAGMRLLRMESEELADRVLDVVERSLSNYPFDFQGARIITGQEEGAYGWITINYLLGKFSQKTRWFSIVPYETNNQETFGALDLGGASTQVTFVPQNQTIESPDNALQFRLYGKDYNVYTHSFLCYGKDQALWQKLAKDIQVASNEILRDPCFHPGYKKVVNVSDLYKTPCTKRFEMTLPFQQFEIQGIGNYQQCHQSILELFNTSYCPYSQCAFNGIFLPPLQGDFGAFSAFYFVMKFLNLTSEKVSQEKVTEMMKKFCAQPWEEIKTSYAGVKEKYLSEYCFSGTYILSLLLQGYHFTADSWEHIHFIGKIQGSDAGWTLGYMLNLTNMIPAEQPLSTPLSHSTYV


Tests used:
[1] = biological target: T1, human CD39 protein (recombinant); assay: ELISA on coated human CD39 protein
Protocol: To determine if anti-CD39 mAbs bind to human CD39, ELISA plates were incubated overnight at 4° C. with human CD39 protein or mouse CD39 protein diluted in PBS, pH7.4 buffer at 1 μg/ml. Plates were washed four times in washing buffer (PBS containing 0.05% Tween 20), and blocked for 1 hour at 37° C. with 200 μl per well blocking buffer (1% BSA in PBS containing 0.05% Tween 20). After blocking buffer was removed, hybridoma supernatant or diluted purified Abs were added to the wells at 100 μl per well and incubated at 37° C. for 1 hour. The wells were washed four times with washing buffer, and anti-mouse HRP (for mouse anti-human CD39 Ab characterization) or anti-rat HRP (for rat anti-mouse CD39 Ab characterization) (Sigma) were 1:5000 diluted and added to the wells at 100 μl per well. The plates were incubated for 1 hour at 37° C. and washed four times in washing buffer. 100 μl of tetramethylbenzidine (TMB) chromogenic solution were added per well. Following color development, the reaction was stopped with 1N HCl, and absorbance at 450 nm was measured. The data were proceeded by GraphPad software.
Humanized antibodies HuEM04-38-6 to HuEM0004-38-20 and chimeric antibodies EM04-38c, EM004-38c1, and EM0004-38c2 were tested for CD39 specific binding by ELISA as described in Example 1.2 and for inhibition of protein-based ATPase activity as described in Example 1.3.

[2] = biological target: T1, human CD39 protein (recombinant); assay: cell-based or functional assay

| EC50 [1] | ATPase inhibition IC50 [2] | ATPase inhibition, inhibition % [2] | Binder |
| --- | --- | --- | --- |
| 0.021 µg/mL | 65.3 nM | 99.6% | HuEM0004-38-11 (antibody, human IgG1, kappa, L234A L235A, V domains shown, humanized mAb638, human IgG1/kappa) VH: EVQLVQSGAEVKKPGASVKVSCKASGYTFTSFWMHWVRQAPGQGLEWMGNINPRNGATKYNEKFRSRVTMTADTSISTAYMELSRLRSDDTAVYYCAREDYDEIYYAMDSWGQGTTVTVSS VL: ENVLTQSPATLSLSPGERATLSCSASSSVIYMYWFQQKPGQSPRVLIYDTSNLASGIPARFSGSGSGTDYTLTISSLEPEDFAVYYCQQWSTYPLTFGQGTKLEIKR |
| 0.031 µg/mL | 40.9 nM | 97.6% | HuEM0004-38-15 (antibody, human IgG1, kappa, L234A L235A, V domains shown, humanized mAb638, human IgG1/kappa) VH: EVQLVQSGAEVKKPGASVKVSCKASGYTFTSFWMHWVRQAPGQGLEWIGNINPRNGATKYNEKFRSKVTLTADKSISTAYMELSRLRSDDTAVYYCAREDYDEIYYAMDSWGQGTTVTVSS VL: ENVLTQSPATLSLSPGERATLSCSASSSVIYMYWFQQKPGQSPRVLIYDTSNLASGIPARFSGSGSGTDYTLTISSLEPEDFAVYYCQQWSTYPLTFGQGTKLEIKR |
| 0.02 µg/mL | 33.2 nM | 99.2% | HuEM0004-38-19 (antibody, human IgG1, kappa, L234A L235A, V domains shown, humanized mAb638, human IgG1/kappa) VH: EVQLVQSGAEVKKPGASVKVSCKASGYTFTSFWMHWVRQAPGQGLEWIGNINPRNGATKYNEKFRSRVTLTADKSISTAYMELSRLRSDDTAVYYCAREDYDEIYYAMDSWGQGTTVTVSS VL: ENVLTQSPATLSLSPGERATLSCSASSSVIYMYWFQQKPGQSPRVLIYDTSNLASGVPARFSGSGSGTDYTLTISSLEPEDFAVYYCQQWSTYPLTFGQGTKLEIKR |
| 0.031 µg/mL | 27.3 nM | 100% | HuEM0004-38-20 (antibody, human IgG1, kappa, L234A L235A, V domains shown, humanized mAb638, human IgG1/kappa) VH: EVQLVQSGAEVKKPGASVKVSCKASGYTFTSFWMHWVRQAPGQGLEWIGNINPRNGATKYNEKFRSKVTLTADKSISTAYMELSRLRSDDTAVYYCAREDYDEIYYAMDSWGQGTTVTVSS VL: ENVLTQSPATLSLSPGERATLSCSASSSVIYMYWFQQKPGQSPRVLIYDTSNLASGVPARFSGSGSGTDYTLTISSLEPEDFAVYYCQQWSTYPLTFGQGTKLEIKR |
| 0.023 µg/mL | 46.9 nM | 103% | HuEM0004-38-12 (antibody, human IgG1, kappa, L234A L235A, V domains shown, humanized mAb638, human IgG1/kappa) VH: EVQLVQSGAEVKKPGASVKVSCKASGYTFTSFWMHWVRQAPGQGLEWMGNINPRNGATKYNEKFRSRVTMTADKSISTAYMELSRLRSDDTAVYYCAREDYDEIYYAMDSWGQGTTVTVSS VL: ENVLTQSPATLSLSPGERATLSCSASSSVIYMYWFQQKPGQSPRVLIYDTSNLASGIPARFSGSGSGTDYTLTISSLEPEDFAVYYCQQWSTYPLTFGQGTKLEIKR |
| 0.027 µg/mL | 41 nM | 102% | HuEM0004-38-16 (antibody, human IgG1, kappa, L234A L235A, V domains shown, humanized mAb638, human IgG1/kappa) VH: EVQLVQSGAEVKKPGASVKVSCKASGYTFTSFWMHWVRQAPGQGLEWMGNINPRNGATKYNEKFRSRVTMTADTSISTAYMELSRLRSDDTAVYYCAREDYDEIYYAMDSWGQGTTVTVSS VL: ENVLTQSPATLSLSPGERATLSCSASSSVIYMYWFQQKPGQSPRVLIYDTSNLASGVPARFSGSGSGTDYTLTISSLEPEDFAVYYCQQWSTYPLTFGQGTKLEIKR |
| 0.097 µg/mL | 81.8 nM | 67.9% | HuEM0004-38-8 (antibody, human IgG1, kappa, L234A L235A, V domains shown, humanized mAb638, human IgG1/kappa) VH: EVQLVQSGAEVKKPGASVKVSCKASGYTFTSFWMHWVRQAPGQGLEWMGNINPRNGATKYNEKFRSRVTLTADKSISTAYMELSRLRSDDTAVYYCAREDYDEIYYAMDSWGQGTTVTVSS VL: ENVLTQSPATLSLSPGERATLSCSASSSVIYMYWFQQKPGQAPRLLIYDTSNLASGIPARFSGSGSGTDYTLTISSLEPEDFAVYYCQQWSTYPLTFGQGTKLEIKR |
| 0.175 µg/mL | 83.2 nM | 71.5% | HuEM0004-38-10 (antibody, human IgG1, kappa, L234A L235A, V domains shown, humanized mAb638, human IgG1/kappa) VH: EVQLVQSGAEVKKPGASVKVSCKASGYTFTSFWMHWVRQAPGQGLEWIGNINPRNGATKYNEKFRSKVTLTADKSISTAYMELSRLRSDDTAVYYCAREDYDEIYYAMDSWGQGTTVTVSS VL: ENVLTQSPATLSLSPGERATLSCSASSSVIYMYWFQQKPGQAPRLLIYDTSNLASGIPARFSGSGSGTDYTLTISSLEPEDFAVYYCQQWSTYPLTFGQGTKLEIKR |

The remaining lines, values behind:

| Binder | EC50 [1] | ATPase inhibition IC50 [2] | ATPase inhibition, inhibition % [2] |
| --- | --- | --- | --- |
| EM0004-38c (antibody, human IgG1, kappa, L234A L235A, V domains shown, chimeric mAb638; also called EM04-38c) VH: QVQLQQPGTELVKPGASVKLSCKASGYTFTSFWMHWVKQRPGQGLEWIGNINPRNGATKYNEKFRSKVTLTADKTSSTAYMHLSSLTSEDSAVYYCAREDYDEIYYAMDSWGQGTSVTVSS VL: QNVLTQSPAIMSASPGEKVTMTCSASSSVIYMYWFQQKPGSSPRVLIYDTSNLASGVPARFSGSGSGTSYSLTISRMEAEDAATYYCQQWSTYPLTFGAGTKLELKR | 0.014 µg/mL | 24.2 nM | 107% |
| HuEM0004-38-6 (antibody, human IgG1, kappa, L234A L235A, V domains shown) VH: EVQLVQSGAEVKKPGASVKVSCKASGYTFTSFWMHWVRQAPGQGLEWMGNINPRNGATKYNEKFRSRVTMTADTSISTAYMELSRLRSDDTAVYYCAREDYDEIYYAMDSWGQGTTVTVSS VL: ENVLTQSPATLSLSPGERATLSCSASSSVIYMYWFQQKPGQAPRLLIYDTSNLASGIPARFSGSGSGTDYTLTISSLEPEDFAVYYCQQWSTYPLTFGQGTKLEIKR | – | 140 nM | 64.1% |
| HuEM0004-38-9 (antibody, human IgG1, kappa, L234A L235A, V domains shown) VH: EVQLVQSGAEVKKPGASVKVSCKASGYTFTSFWMHWVRQAPGQGLEWIGNINPRNGATKYNEKFRSRVTLTADKSISTAYMELSRLRSDDTAVYYCAREDYDEIYYAMDSWGQGTTVTVSS VL: ENVLTQSPATLSLSPGERATLSCSASSSVIYMYWFQQKPGQAPRLLIYDTSNLASGIPARFSGSGSGTDYTLTISSLEPEDFAVYYCQQWSTYPLTFGQGTKLEIKR | – | 79.6 nM | 61.6% |
| HuEM0004-38-13 (antibody, human IgG1, kappa, L234A L235A, V domains shown, humanized mAb638, human IgG1/kappa) VH: EVQLVQSGAEVKKPGASVKVSCKASGYTFTSFWMHWVRQAPGQGLEWMGNINPRNGATKYNEKFRSRVTLTADKSISTAYMELSRLRSDDTAVYYCAREDYDEIYYAMDSWGQGTTVTVSS VL: ENVLTQSPATLSLSPGERATLSCSASSSVIYMYWFQQKPGQSPRVLIYDTSNLASGIPARFSGSGSGTDYTLTISSLEPEDFAVYYCQQWSTYPLTFGQGTKLEIKR | 0.023 µg/mL | 36.2 nM | 98.7% |
| HuEM0004-38-14 (antibody, human IgG1, kappa, L234A L235A, V domains shown, humanized mAb638, human IgG1/kappa) VH: EVQLVQSGAEVKKPGASVKVSCKASGYTFTSFWMHWVRQAPGQGLEWIGNINPRNGATKYNEKFRSRVTLTADKSISTAYMELSRLRSDDTAVYYCAREDYDEIYYAMDSWGQGTTVTVSS VL: ENVLTQSPATLSLSPGERATLSCSASSSVIYMYWFQQKPGQSPRVLIYDTSNLASGIPARFSGSGSGTDYTLTISSLEPEDFAVYYCQQWSTYPLTFGQGTKLEIKR | 0.021 µg/mL | 36.9 nM | 98.9% |
| HuEM0004-38-17 (antibody, human IgG1, kappa, L234A L235A, V domains shown, humanized mAb638, human IgG1/kappa) VH: EVQLVQSGAEVKKPGASVKVSCKASGYTFTSFWMHWVRQAPGQGLEWMGNINPRNGATKYNEKFRSRVTMTADKSISTAYMELSRLRSDDTAVYYCAREDYDEIYYAMDSWGQGTTVTVSS VL: ENVLTQSPATLSLSPGERATLSCSASSSVIYMYWFQQKPGQSPRVLIYDTSNLASGVPARFSGSGSGTDYTLTISSLEPEDFAVYYCQQWSTYPLTFGQGTKLEIKR | 0.044 µg/mL | 20.4 nM | 103% |
| HuEM0004-38-7 (antibody, human IgG1, kappa, L234A L235A, V domains shown, humanized mAb638, human IgG1/kappa) VH: EVQLVQSGAEVKKPGASVKVSCKASGYTFTSFWMHWVRQAPGQGLEWMGNINPRNGATKYNEKFRSRVTMTADKSISTAYMELSRLRSDDTAVYYCAREDYDEIYYAMDSWGQGTTVTVSS VL: ENVLTQSPATLSLSPGERATLSCSASSSVIYMYWFQQKPGQAPRLLIYDTSNLASGIPARFSGSGSGTDYTLTISSLEPEDFAVYYCQQWSTYPLTFGQGTKLEIKR | 0.149 µg/mL | 83.5 nM | 71.4% |
| HuEM0004-38-18 (antibody, human IgG1, kappa, L234A L235A, V domains shown, humanized mAb638, human IgG1/kappa) VH: EVQLVQSGAEVKKPGASVKVSCKASGYTFTSFWMHWVRQAPGQGLEWMGNINPRNGATKYNEKFRSRVTLTADKSISTAYMELSRLRSDDTAVYYCAREDYDEIYYAMDSWGQGTTVTVSS VL: ENVLTQSPATLSLSPGERATLSCSASSSVIYMYWFQQKPGQSPRVLIYDTSNLASGVPARFSGSGSGTDYTLTISSLEPEDFAVYYCQQWSTYPLTFGQGTKLEIKR | 0.019 µg/mL | 18.9 nM | 98.5% |
